The assay addresses T1, Bovine myelin basic protein (MBP) (bovine, UniProt P02687 1-169).
T1 construct: Myelin basic protein, bovine
The assay is described as follows: ELISA + other: WB (methods) or immunoprecipitation (results); synthetic peptides with C-terminal Lys-biotin tested for binding of MBP and LMP1; one grade a pair for the two assays. The settings on record: both partners purified. (An ELISA detects its analyte on a solid surface through an enzyme-linked reagent.)

No end group written: not given here.

T1 sequence (P02687 whole entry): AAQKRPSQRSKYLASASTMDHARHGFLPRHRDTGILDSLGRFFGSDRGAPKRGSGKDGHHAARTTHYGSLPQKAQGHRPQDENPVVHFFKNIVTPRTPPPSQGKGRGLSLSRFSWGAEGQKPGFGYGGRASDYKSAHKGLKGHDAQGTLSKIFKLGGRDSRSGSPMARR

B1: Synthesized biotinylated peptide P3, TYGGTFTDYLYNWVK (Bio) (peptide)
peptide: TYGGTFTDYLYNWVK
modifications: also: C-terminal Lys-biotin
notes: source: synthetic peptide (Shanghai Ruifu Chemical Co., Ltd.)
B1: the binding result is listed as “binds”.

For the origin of these results see paper PMC5498468, “Exposure to the Epstein–Barr Viral Antigen Latent Membrane Protein 1 Induces Myelin-Reactive Antibodies In Vivo” (Frontiers in Immunology, 2017).
